Molecular target: the molecule itself
Experiment: negative stain transmission electron microscopy

B1: Mopeia virus nucleoprotein (natural protein, UniProt P19239 1-570, looked up)
chain: MSNSKEVKSFLWTQSLRRELSGYCSNIKIQVIKDAQALLHGLDFSEVANVQRLMRKEKRDDSDLKRLRDLNQAVNNLVELKSVQQKNVLRVGTLTSDDLLVLAADLDRLKAKVIRGERPLAAGVYMGNLTAQQLEQRRVLLQMVGMGGGFRAGNTLGDGIVRVWDVRNPELLNNQFGTMPSLTIACMCKQGQADLNDVIQSLSDLGLVYTAKYPNMSDLDKLSQTHPILGIIEPKKSAINISGYNFSLSAAVKAGACLIDGGNMLETIKVTKSNLEGILKAALKVKRSLGMFVSDTPGERNPYENLLYKLCLSGEGWPYIASRTSIVGRAWDNTTVDLSGDVQQNAKPDKGNSNRLAQAQGMPAGLTYSQTMELKDSMLQLDPNAKTWIDIEGRPEDPVEIAIYQPNNGQYIHFYREPTDIKQFKQDSKHSHGIDIQDLFSVQPGLTSAVIESLPKNMVLSCQGADDIRKLLDSQNRRDIKLIDVSMQKDDARKFEDKIWDEYKHLCRMHTGIVTQKKKRGGKEEVTPHCALLDCLMFEAAVIGSPQIPTPRPVLSRDLVFRTGPPRVVL
notes: Nucleoprotein (NP, ~63 kDa) of Mopeia virus (MOPV), full length; also called MOPV-NP; MOPV NP; not shown: thioredoxin, N-terminal, cleaved; His6, N-terminal, cleaved
stoichiometry N: 7

— article PMC8016135, “Observation of arenavirus nucleoprotein heptamer assembly” (FEBS Open Bio, 2021)
